assay: soluble fraction after stress (log2 fold change); higher = more stays soluble; pooled small domains, quantitative proteomics; conditions: stress: pH 4
Outline: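 Small protein domains from pooled custom libraries were exposed to pH 4, then quantified with high-throughput quantitative proteomics. The fold change in how much of each domain remains soluble is read as aggregation propensity. It is given as log2, with higher values meaning more stayed soluble.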

First: HMLPDLQESIDELLNIVDQRLNTSFEELVSGVNTTEKAIAFFLALLETIKWGFIKAEQTNNENKINIEKNY
Second: HMSKTKDVLVQLMAERGLTQSDIARALSVRPQAVQQWVSGKTRPTGKNLEALAEFLQLPPAVIVHGP
The “soluble fraction (log2)” value of the first is lower: -1.4 for the first, 0.344 for the second.

Going from “HMTALISGNKAMQMLELSRHSFEKIVKDGLLSIVHEGDKKYYEIGEVEAFMGSDTYKELVNGV” to “HMEYNLTLEELNRDLYIRGEIWNVGDVVKTTDGDEGTIIRKGTNYVVFEDLRRVWLHNLEEVK”, the “soluble fraction (log2)” value falls from -0.314 to -1.64.

Going from “HMVAGHLSEKKGYYYAVLNYKDYTGKRKSKWVSTGLPVKGNKRRAEKILADIKRDFVPEEPKR” to “HMYSYSFTSSEGSTFEGQLIRVEESQVTILRYADQKEFSIPKSRFIEADQVYFERWAIENPQL”, the “soluble fraction (log2)” value falls from -0.0527 to -2.88.

Going from “HMKNVENIILEQLKKNIYDDLNNASFEEIILIDAEKSIYKGTIKANYIEYNFKINLSTGEILKWKLK” to “HMTEDQDWAIFKQKLKAQTEIDLDLYKEPQMKHRIKNLIQNAGFDSYVQYFDYVYLNQDRLAAFLENLTV”, the “soluble fraction (log2)” value falls from -0.763 to -1.15.

Compared with “HMGDPMAIMQLSSNTTPEYWEAYQKYHIQEYEQSNFIRYVNGISVLDDDFVDKVLITIDQHGRIFSELKS”, “HMGNRQEQVRIIRDLWRQLADAGQPVPAKHLTLDLDALDATQLTKLEDQAHGWLAKLSAQADLADAA” is higher in “soluble fraction (log2)” value: -2.5 for the first, 0.22 for the second.

Going from “HMVIIPNILNKYKGLAFRQLEQVGLKIGDTIYEPNIQRDAVLRMQINGRSVQPGDQVMRFSVVDLVIG” to “HMADVYFDGKFLGETPVTVAVSTTGKPAHEISLIRGGYEPWSTTYQGNPRPGQTATVMAILVHA”, the “soluble fraction (log2)” value rises from -1.14 to -0.121.

Compared with “HMYYTAPDGRKREILDAALRLIAAGGPDSLTYRRVADEAGVPLGSLTYYFEAREDLIREAFRLYIAEASR”, “HMGSFGAMLKRNRKLAGLTQEQLAEKLDVSTVAVQNWESGKNQIRSEKLTKLSYLFNIPLETLIHEMLIS” is higher in “soluble fraction (log2)” value: -1.6 for the first, 0.0247 for the second.

Compared with “HMGTFIATVEANSLDIYKSMSSNETIGKANKGEVFQILEDMGSGYARVSYNDVEGYLSIRDGDATIEE”, “HMDLDPVEKLHLLSQLYVGQLKGSFVVKEKNQKTTIIGEVRELSHQTLSIRTNEGYRLIEVADILEIRLWE” is higher in “soluble fraction (log2)” value: -1.54 for the first, -0.362 for the second.

Compared with “HMKKILIVTNRSAGMVVYTIPEEGIRREFTPGETKKIPFEELEKLAYLSGGRTLMENFLKIVDTETTEELG”, “HMAAMSLGERIGAHRKRMGISQEELGHRMGVSRQAVSKWETGRAVPDMENLLALARLFGVPVSELAD” is higher in “soluble fraction (log2)” value: -1.44 for the first, -0.0628 for the second.

Going from “HMLEIQENFQNILKRMELSLSPLERRVLALYLSGYERSEIPEKTGIPLKTFDNALHRVRNKMK” to “HMHLNVYRDEDEAMLAFKDHLIGTHQPIRVRVEKALPDGTMGHKIVDTTIGRIVFNHNIPQD”, the “soluble fraction (log2)” value rises from -0.711 to 0.0727.

First: HMGRYATVPDVVGSTPEVARELIRSEGLRYVLSEETVYSDSDTGTVGRTDPESGTRMSADDEVVVYLS
Second: HMNYVFVLNEHGVRQTSYVVGLHADTLEKTEKLAKQTYPTSTIISGDSEMQSQFISGKAYVNGEFVDP
The “soluble fraction (log2)” value of the first is lower: -1.27 for the first, -0.192 for the second.

Compared with “HMNSKKETLLSYLYNHSTWSSRNDLSNFLNVSTRQVTNYINEINKNETIVLSSNKGYKINPKFIGKN”, “HMQPIAVHIGTENPMKSLSDLSVVRAQFTSGGRVIGSVAVLGPTRMQYSRIVGMMRFMQQRLDLLLKG” is lower in “soluble fraction (log2)” value: 0.22 for the first, -0.0772 for the second.

First: HMFIRINQTQNSPRKSVQIVESKRDGHKVRTKILRHVGIAMDDVELQKLKSLAQDIIAKMTVETENASKQ
Second: HMKSVLDDVAGLGPVRKKALLKAMGGFTRLRAASLDDILAVRAVPEEVAREVFAVLAQYNSVRNNDISE
The “soluble fraction (log2)” value of the first is lower: 0.176 for the first, no less than 0.43 for the second.

First: HMNDAARQTTDILQHVRSSGSISFRDLWRLFMPFMAYRDFDAAVKSLVAAGHIATTENERKELHLIAF
Second: HMEDFDLSDTERKIIAQIGHGYSNKEIAQKLGFSEGTIRNYLSVILDKLDLRDRTQLAIWYLSR
The “soluble fraction (log2)” value of the first is lower: -1.42 for the first, -0.229 for the second.

Compared with “HMDRAIAAHLEARVRDALKQLSPEQTRVIELFFFDNKTHAEIENDLKIPLGTVKSRLRLALNKLRASL”, “HMKPDSEFTSQDLWQNDLAGTGSAAYRRDKMGALLGIGYGNAKRFLERLNSYGVTRSEFDEALAQLGE” is higher in “soluble fraction (log2)” value: -0.234 for the first, 0.134 for the second.

Compared with “HMTFEAKKGYINADMSVNVRETASTSATVIITLNPNTEVKVVGEENDFYKIEYKEYKGYVAKRLISDSQVQ”, “HMIGITTANLNVRTGTDTNYTSIAILPKGTKVNILEENVKPGWYKIQFDEIYAFVSSKYIKIQS” is higher in “soluble fraction (log2)” value: -0.142 for the first, 0.243 for the second.

Going from “HMRQMIIIMQKQAAASSVAAVVEFIRSKGLREHISPGAERTIIGAVGDERVFLPQELESLPQVERAIRVL” to “HMSELDSYIGARLRMRRLMLGMSQEALGEKLSLTFQQIQKYEKGTNRVSASRLYELAQVLDVPVQFFFDGA”, the “soluble fraction (log2)” value falls from -0.85 to -1.39.

Compared with “HMLVSFGDHLKRYIYERAGIEEPFGEVPQEIYRDIAVDSFRETYTPKSMNPTSTKLPALVNNWLIQ”, “HMSSKYLKIYNDIVGKIDSGIFEANTKLPSESQLMDEYNVSRYTVRKSLNLLEQNGYIEKSKGKGSFVLDM” is higher in “soluble fraction (log2)” value: -0.388 for the first, -0.1 for the second.

Compared with “HMLNPVEKLLLLSQLYIGRLKGSFVVKEKHHKSTILGEVRELSPEEITLKTDEGYRLIRVDDILTIQL”, “HMGNWENVEKETTEAIMAVKNGEAVWVDLAPANRMIRQMQHELVEQYGLLSQSYGKEPKRRIRIFQNP” is higher in “soluble fraction (log2)” value: -0.704 for the first, 0.0117 for the second.

First: HMLFKNASGTVVSRIQSQVDGQINIRTGSGNAPDYAFVAKPDGAVELYHNGTKQFETGSSGVLLP
Second: HMVPVSIYAYNKIKTAILNNELMPGEKLVEASLAETLNMSRTPIREALRQLEQEGFVTYYPQKGSIVSH
The “soluble fraction (log2)” value of the first is higher: -0.527 for the first, -0.91 for the second.

First: HMVKPQANTIYKEYIKYRANLQNKNEFLSFSEYAKQKHNLEQMSEIMVDANLKEEMLETLKEMS
Second: HMSHGFFTLQSDDLNLLRTVLEGHSSIGDIKIEGIQLVAYLKEPLNGAELNKILFEKGINLSYLVHRK
The “soluble fraction (log2)” value of the first is higher: 0.0548 for the first, -1.52 for the second.

Going from “HMKSVTAPLPGTVTQILVKVGDAVKAGDTVLMLEAMKMENSITAEAAGTVKAIRVEKGAQVQGGDVLIEM” to “HMKRPEPESPEAERRSQRAADWLVRRDRGLTAAEQDEFLQWLAIDPRHGEWFALHRSVVGEFSA”, the “soluble fraction (log2)” value falls from -0.594 to -1.12.

Going from “HMNILAPFWERFGLSAFAAGNYDRAEGYFRKLEQKDPNSMSVLRNLGLILMAKGDAEGAEAYLLREEKL” to “HMEAAIRNALSRVENPDETQRARIYRTAHDALIRNLENRGITDPEQVRPQVSRLKDLISVIEREYHG”, the “soluble fraction (log2)” value rises from -0.643 to -0.0565.

Going from “HMGVLDFSAQLLKHLEMNGGQTPLGDKSPAEEIYAVFGVSKKVFKKAVGDLYRKRLIEISSNGIRMTS” to “HMIAKEDDGTAFLIDGKISSEEEFKTISKDDILEVFVYKETEIAQKKLDSINSINNTYYTSLIEILLKE”, the “soluble fraction (log2)” value falls from 0.336 to -0.854.

“HMNKLIIDAAEDKIFFMIMNNDISYNISHENTKINFEKLIILINDFLSSKKLKINDITGLYV” and “HMKVSVDLSMFEDDQTADRNAAVAWVVDELGAGGVDRTILMQLQSTGWSAEQSRAILDLASAGR” are within 0.2 log units of each other in “soluble fraction (log2)” value: -0.233 for the first, -0.324 for the second.

Going from “HMRQYKEMPYRLFLIHLGKGLVDEVELSDKAKLTGKLKNGKIFITDNPRTENFKEQLLLHDVKVKEG” to “HMGRTKEEIFNILKERIVTLQYEPGKILNEIELSEEFEVSRTPIRTVFQQLEAVKLVSIVPRYGVQVA”, the “soluble fraction (log2)” value falls from -0.133 to -1.11.

First: HMPAPMISIQLNGEPRNVQPGISIAALVREIGLEPAKVAVERNREIVPRSTLGDVLIEAGDQLEIVHFVG
Second: HMFHFELNAAKQALEDRKTIDRAKGILMRQRGMSEDDAYKLLRTTAMSQNRKVIDVAQALVTAADLL
The “soluble fraction (log2)” value of the first is lower: 0.0156 for the first, 0.292 for the second.

With “HMDLEIENYDLREILNLFKLDYNFDNVDLKRAQKIALKTHPDKSNLPKEYFMFFMKAFQIVQQIYYYRY” the “soluble fraction (log2)” value was -1.09.

Reference: the domain aggregation screens of Martell et al. (2025)
